{"source": "patent US12144818B2", "about": "“Method for treating cancer in a human patient by administering an anti-CD37 immunoconjugate using various dosing regimens” (DEBIOPHARM INTERNATIONAL, S.A., priority 2018, dated 2024)", "key": {"[1]": {"details": "low doses such as 0.4 mg/kg and 0.2 mg/kg; cited from earlier work"}, "[2]": {"details": "QW versus Q3W regimen, with rituximab", "experimental": "Adverse events are monitored continuously throughout the study. Adverse events include any noxious, pathologic, or unintended change in anatomical, physiologic, or metabolic function as indicated by physical signs, symptoms, or laboratory changes occurring in any phase of a clinical study, whether or not considered study drug-related. PK parameters that are evaluated include, but are not limited to: Cmax, Tmax, Terminal half-life (t1/2), Vss, CL, AUC0-t, AUCinf."}, "[3]": {"assay": "Phase 1 monotherapy study, safety", "format": "in vivo, human", "experimental": "As such, a more frequent QW dosing schedule with 0.4/0.2/0.2 mg/kg (combined with rituximab Q3W at 375 mg/m^2) should not increase the risk of neutropenia."}, "[4]": {"tested_on": "panel of cell lines representative of diverse NHL subtypes (ABC and GCB DLBCL, CLL, MCL)", "details": "in combination with rituximab; described in WO 2016/200676; cited from earlier work"}, "CD37 [5]": {"molecular_target": "T1, CD37 (Homo sapiens, UniProt P11049)", "T1 construct": "endogenous in cells; host or cells: CD3+ T and CD56+ NK lymphocytes in blood samples from DLBCL patients of Cohorts A and B", "T1 sequence (P11049 1-281)": "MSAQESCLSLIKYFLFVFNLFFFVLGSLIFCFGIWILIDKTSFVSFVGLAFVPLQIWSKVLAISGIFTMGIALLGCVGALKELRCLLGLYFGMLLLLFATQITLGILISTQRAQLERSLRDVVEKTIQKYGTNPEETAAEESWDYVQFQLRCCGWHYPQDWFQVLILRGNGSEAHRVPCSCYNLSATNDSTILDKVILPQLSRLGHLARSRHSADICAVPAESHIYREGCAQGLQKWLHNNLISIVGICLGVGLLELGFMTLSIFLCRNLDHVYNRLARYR", "assay": "Theoretical receptor occupancy derived from observed Cmax, monotherapy Phase 1 study", "format": "in vivo", "details": "even at low dose levels", "experimental": "Therefore, a 0.4 mg/kg loading dose followed by 2 weekly doses of 0.2 mg/kg is expected to provide adequate target saturation across a 3-weeks cycle."}, "CD37 [6]": {"molecular_target": "T1, CD37", "assay": "CD37 receptor occupancy on CD3+T and CD56+NK cells of Cohort A and B subjects", "format": "in vivo", "text": "The maximum RO observed at C1D2 (cycle 1-dose 2) and C1D3 was greater than 90% for both cohorts."}}}
{"substance": "Debio 1562: immunoconjugate containing the huCD37-3 antibody, the SMCC linker, and the DM1 maytansinoid", "values": [{"measurement": "clearance", "setting": "[1]", "result": "substantially higher at low doses"}, {"measurement": "half-life", "setting": "[1]", "result": "lower"}, {"measurement": "safety", "setting": "[2]", "result": "comparable in the QW regimen and the Q3W regimen"}, {"measurement": "maximum tolerated dose (MTD)", "setting": "[3]; Phase 1, without G-CSF", "result": 1, "unit": "mg/kg"}, {"measurement": "neutrophil count", "setting": "[3]; majority of patients, single Q3W dosing with 0.2-0.4 mg/kg, Phase 1", "result": "no decrease in neutrophil count"}, {"measurement": "pro-apoptotic activity of the combination", "setting": "[4]", "result": "synergistic pro-apoptotic activity"}, {"measurement": "saturation of the CD37 sites (theoretical receptor occupancy)", "setting": "CD37 [5]", "result": "> 95", "unit": "%"}, {"measurement": "CD37 receptor occupancy (RO) after administration", "setting": "CD37 [6]; C1D1, CD3+T and CD56+NK lymphocytes, Cohorts A and B", "result": "greater than 80%"}, {"measurement": "maximum RO", "setting": "CD37 [6]; C1D2 and C1D3, both cohorts", "result": "greater than 90%"}, {"measurement": "RO just before re-administration", "setting": "CD37 [6]; samples just before re-administration in cycle 2 and cycle 3", "result": "No RO was observed"}]}
